# Patent US20180312557A1, “Leg1 Protein, Leg1 Gene, and Uses and Drugs thereof” (ZHEJIANG UNIVERSITY, priority 2016, published 2018)
# Assays:
# [1] = system: intracellular tyrosine phosphorylation in HepG2 cells; assay: Total intracellular tyrosine phosphorylation in HepG2 cells (antibody 4G10); format: cell-based, human; details: HepG2, partially purified mLeg1 vs no addition
# Protocol: 18.1 Partially purified mLeg1 was added to the HepG2 cell medium to culture the HepG2 cells, and then total protein was extracted.
# 18.2 The phosphorylation level of the total intracellular tyrosine was detected through the tyrosine phosphorylation antibody 4G10 (Millipore, 05-321).
# EGFR = biological target: T1, EGFR (Mus musculus, UniProt Q01279); assay: Co-immunoprecipitation of mLeg1 and EGFR in cells isolated from liver homogenate; format: binding; details: liver cells incubated at 4° C. with crosslinking agent DSP
# T1 construct: from tissue; host or cells: liver of mLeg1^Δ/Δ mice
# Protocol: Since the reaction of mLeg1 activating EGFR is very short and the EGFR will be degraded soon after being activated, the inventors of the present disclosure used mLeg1 to incubate the liver cells at 4° C., and simultaneously added a crosslinking agent DSP thereto to stabilize the interaction between mLeg1 and its potential interacting protein, and then washed mLeg1 and lysed the liver cells using NP40 lysate for co-immunoprecipitation. The experimental method was as follows.
# 21.1 Antibody crosslinking: 30 μl of proteinA/G (beyotime Cat. No. P2012) was centrifuged at a low speed (500-1000 g) to remove the supernatant, and then washed twice using 4° C. pre-chilled PBS, then added with mLeg1 antibody (20 μg of antibody were dissolved in 1×100 μl PBS) for incubation at room temperature for 30 minutes, and then centrifuged to remove the supernatant. The beads were washed three times with 300 μl of PBS, then incubated with 50 μl of DSS solution (5 μl 10×PBS, 36 μl H2O, 9 μl 2.5 mM DSS (Thermo, Cat. NO. 21655)) for 50 minutes at room temperature. After centrifugation to remove supernatant, the beads were washed three times with 50 μl of 100 mM pH 2.2 glycine, washed twice with 300 μl of PBS containing 1% NP40, and finally washed once with 300 μl of PBS. […]
# 21.5 The protein pulled down by the mLeg1 antibody was detected by Western blot.
# RTKs = assay: Phospho-RTK array, HepG2 cells: other RTKs; format: cell-based, human; details: HepG2, Phospho-RTK array (49 RTKs)
# Protocol: 19.1 The screening of receptor tyrosine kinase was performed by a RTK assay kit (Proteome Profiler Human Phospho-RTK Array Kit, R&D Cat. no. ARY001B) according to the manufacturer's instruction. The kit can detect 49 of 58 RTKs in total. The operation steps are summarized as follows: mLeg1 and a control were used to treat the cells (cells were grown in a 10 cm petri dish) separately, and then 500 μl of lysis buffer17 was used to lyse the cells; the RTK screening membrane was blocked for 1 hour using Assay buffer1 and then coated with a cell lysate for binding overnight, the resultant product was washed three times with 1× Wash Buffer, 10 minutes each time, then added with Anti-Phospho-Tyrosine-HRP Detection Antibody diluted with 1× Array Buffer2 at the ratio of 1:5000 for incubation at room temperature for 2 hours; followed by washing 3 times with 1× Wash Buffer, 10 minutes each time, then applied with Chemi Reagent Mix and developed, and finally imaged in a fluorescent chemiluminescent imager (Clinx Science Instruments Cat. No. 3400) with the signals recorded.
molecule,measurement,setting,value
"mLeg1 protein: mouse secretory protein (SEQ ID NO: 2) encoded by mLeg1 gene, partially purified from salivary glands by column chromatography (protein, listed as Mus musculus, partially purified) MAVLASWVWVLAGCFCAAVAEVSDSSDPYPPLWEDSPEQLSDYMMEDGNYIINPWVYTDRMGMYRILLEETAMYFAKYGPENEQNLLWGLPLQFGWQYQSGRLADPTGMTDCGNELNESLCVSVDSWWADINYYLSVIPFLAAVDSGITGISPNQITILPPPKDQMRFCYNVSDCQSAVPGTMNRWRDFFQYMQLNSSDFDGLLNYLWEAHASSLDYPTSAFGDRYNFYSEKEANFEENWAIAVNYLAAARLPTTQNRTYSFQRGLPPRVLVDTDIAPFIPDFTPLQNEVLVSLKLLGDTDRNSGSLSLTLWENLMSTKLARTLFLKAFEEFLATSS",phosphorylation level of the intracellular tyrosine,[1],far higher than that of the control group
same,interaction with EGFR (pull-down by mLeg1 antibody),EGFR,EGFR could be co-precipitated
same,activity of most of the RTKs,RTKs,not influenced
